B1: HDV Ribozyme (parent)
chain: GGCCGGCAUGGUCCCAGCCUCCUCGCUGGCGCCGGCUGGGCAACAUUCCGAGGGGACCGUCCCCUCGGUAAUGGCGAAUGGGACCCA

The record followed here is the RNAGym collection of RNA variant scans (doi:10.7554/elife.80360).

In this data set the parent is B1. Briefly: self-cleavage, relative activity (ratio to wild type); higher = more cleavage; co-transcriptional.
In the case of G2U G29A, the self-cleavage is 0.0178.
G2A G10U: the self-cleavage is 0.0837.
Take G2A G10C: the self-cleavage was 0.105.
Turning to G2A C66A, the self-cleavage was determined as 0.194.
As for G2A C66G, the self-cleavage was 0.213.
Under G2C C75G stands 0.0314; under G2C C75A, 0.
For G2U A56U the value was 0.016; for G2U A56C, 0.0405; for G2C G59C, 0.0923.
For the variant G2A G39U, the self-cleavage was found to be 0.0305.
In the case of G2A G39C, the self-cleavage was 0.0712.
On to G2C U79G, for which the self-cleavage is 0.
In the case of G2C U79C, the self-cleavage was 0.101.
For G2U C33U the value was 0.0422.
For G2U G55C the value was 0.116; for G2U G55A, 0.0732.
Regarding G2U C22U, the self-cleavage was 0.032.
In the case of G2U C22A, the self-cleavage was found to be 0.035.
Turning to G2U C22G, the self-cleavage turned out to be 0.0193.
For G2A C57G, the self-cleavage amounted to 0.158.
On to G2A C57A, for which the self-cleavage worked out at 0.258.
For G2U G52A, the self-cleavage was 0.0704.
In the case of G2U G52C, the self-cleavage came out at 0.0339.
Consider G2C U9C, for which the self-cleavage is 0.128.
Turning to G2U C7A, the self-cleavage was 0.013.
As for G2U C7U, the self-cleavage was 0.0264.
On to G2U C18G, for which the self-cleavage stood at 0.0692.
Take G2A C75G: the self-cleavage amounted to 0.0615.
Take G2A C75A: the self-cleavage is 0.0542.
With G2U C61G, the self-cleavage amounted to 0.0386.
With G2U C61A, the self-cleavage was 0.0913.
Regarding G2A G67A, the self-cleavage turned out to be 0.11.
For G2C G6U the value was 0.0601; for G2C C64G, 0.0804.
Regarding G2C C64A, the self-cleavage came out at 0.0652.
With G2C C64U, the self-cleavage was determined as 0.0219.
As for G2C A77G, the self-cleavage stood at 0.0346.
Regarding G2U C13A, the self-cleavage came to 0.
As for G2U C13G, the self-cleavage worked out at 0.
With G2C C44G, the self-cleavage turned out to be 0.0656.
Turning to G2C C44U, the self-cleavage came to 0.0453.
Under G2C C44A stands 0.0449.
For G2C A56U the value was 0.0482.
For the variant G2C A56G, the self-cleavage amounted to 0.0332.
Turning to G2C A56C, the self-cleavage came out at 0.0678.
Take G2C U23A: the self-cleavage is 0.
G2C U23G: the self-cleavage came to 0.0268.
Consider G2U C30G, for which the self-cleavage worked out at 0.0601.
In the case of G2U C30U, the self-cleavage came to 0.025.
For G2U G54A, the self-cleavage was found to be 0.0279.
Take G2U G54C: the self-cleavage amounted to 0.0157.
Under G2U C85U stands 0.
For the variant G2C U12A, the self-cleavage stood at 0.17.
For G2C U12G the value was 0.0426; for G2U G38A, 0.032; for G2U G38U, 0.0126.
For the variant G2U, the self-cleavage worked out at 0.0584.
For G2C the value was 0.0584; for G2A G17A, 0.0604; for G2A G17C, 0.
For G2A G81U, the self-cleavage worked out at 0.0346.
Under G2A G81C stands 0.115; under G2A G81A, 0.0692.
Consider G2C G55A, for which the self-cleavage stood at 0.0941.
On to G2A G54U, for which the self-cleavage was found to be 0.127.
Consider G2A G54C, for which the self-cleavage worked out at 0.296.
For the variant G2A G54A, the self-cleavage is 0.194.
For the variant G2U C41G, the self-cleavage was 0.0119.
As for G2U C41U, the self-cleavage was 0.0419.
In the case of G2A C19G, the self-cleavage is 0.
As to G2C U60C, the self-cleavage is 0.0545.
In the case of G2C G76A, the self-cleavage was 0.13.
Under G2C G76C stands 0.0747.
For the variant G2A G59U, the self-cleavage is 0.19.
Take G2A G59C: the self-cleavage stood at 0.244.
For G2A C24U the value was 0.101; for G2A C32G, 0.0441.
As for G2A C32A, the self-cleavage came to 0.0507.
As to G2A G53U, the self-cleavage is 0.145.
For the variant G2C G10U, the self-cleavage stood at 0.056.
Under G2C G10A stands 0.145.
Regarding G2C G10C, the self-cleavage came to 0.
Regarding G2C C26A, the self-cleavage is 0.314.
On to G2A C33U, for which the self-cleavage was 0.035.
Consider G2A G40A, for which the self-cleavage was 0.136.
For G2A G40C the value was 0; for G2A G40U, 0.0799; for G2A G35A, 0.0569.
Consider G2A G35U, for which the self-cleavage is 0.0602.
For the variant G2U C19U, the self-cleavage was determined as 0.0155.
On to G2U C19G, for which the self-cleavage amounted to 0.
As for G2U C19A, the self-cleavage was 0.0165.
G2C G35C: the self-cleavage was 0.124.
Take G2C G35A: the self-cleavage was 0.0623.
For G2C G35U the value was 0.0747.
Take G2C G5U: the self-cleavage is 0.145.
As for G2C G5C, the self-cleavage is 0.237.
Turning to G2U C66G, the self-cleavage stood at 0.0198.
Consider G2U C66U, for which the self-cleavage was found to be 0.0895.
Under G2A C44A stands 0.0875; under G2A C44G, 0.0185.
With G2U C84U, the self-cleavage is 0.0604.
Under G2U A8G stands 0.0272; under G2U A8U, 0.134; under G2A C18G, 0.0817.
As to G2A C18U, the self-cleavage came to 0.0239.
As for G2A C18A, the self-cleavage was 0.0236.
For the variant G2C G25A, the self-cleavage was 0.0528.
As to G2U A43C, the self-cleavage turned out to be 0.0292.
As for G2U A43U, the self-cleavage turned out to be 0.0866.
For G2U A45G, the self-cleavage was determined as 0.
For the variant G2U A45C, the self-cleavage amounted to 0.
Under G2A C49A stands 0.122; under G2A C49G, 0.135.
With G2A G80U, the self-cleavage came out at 0.0227.
Turning to G2U C86U, the self-cleavage was found to be 0.095.
Turning to G2U C86A, the self-cleavage is 0.152.
Turning to G2U C62G, the self-cleavage stood at 0.136.
With G2U C62A, the self-cleavage is 0.0166.
In the case of G2C G39U, the self-cleavage turned out to be 0.0246.
G2A U9C: the self-cleavage was found to be 0.113.
As for G2A U9G, the self-cleavage amounted to 0.192.
Take G2U C26A: the self-cleavage is 0.0357.
With G2U C32A, the self-cleavage turned out to be 0.0302.
As for G2U C32U, the self-cleavage was determined as 0.0437.
On to G2A C22A, for which the self-cleavage was 0.0205.
Consider G2A C22U, for which the self-cleavage amounted to 0.0183.
For G2C G17A the value was 0.
As for G2C G17C, the self-cleavage turned out to be 0.0536.
As to G2C U27C, the self-cleavage came to 0.0496.
In the case of G2C U27G, the self-cleavage turned out to be 0.0437.
On to G2C G52A, for which the self-cleavage is 0.113.
Regarding G2U G28U, the self-cleavage stood at 0.0246.
Under G2A G74A stands 0.0457.
Under G2C G53A stands 0.108; under G2A C62G, 0.086.
In the case of G2A C62A, the self-cleavage stood at 0.137.
In the case of G2C G31C, the self-cleavage was 0.0237.
G2C G31U: the self-cleavage was found to be 0.109.
Regarding G2A C14G, the self-cleavage was 0.0773.
For G2A C14U, the self-cleavage was 0.169.
For G2C C48G the value was 0.0545; for G2C C48A, 0; for G2A G34U, 0.0449.
Take G2U G53A: the self-cleavage worked out at 0.0412.
G2U G53C: the self-cleavage was found to be 0.0647.
For G2A A78U the value was 0.0674.
On to G2A C58G, for which the self-cleavage is 0.151.
G2A G28A: the self-cleavage came out at 0.0107.
As for G2C C36U, the self-cleavage was 0.0799.
For G2C C36A the value was 0.138; for G2A G38C, 0.07; for G2A G38A, 0.0314.
In the case of G2C C62U, the self-cleavage was determined as 0.0841.
Under G2C C4U stands 0.475.
As to G2U C49G, the self-cleavage worked out at 0.0329.
As for G2U C49U, the self-cleavage was determined as 0.0821.
Under G2C C14G stands 0.0773.
G2U A78C: the self-cleavage came to 0.0198.
For G2U A78U the value was 0.
For the variant G2C U47C, the self-cleavage is 0.102.
G2A C64G: the self-cleavage is 0.0923.
For the variant G2A U69C, the self-cleavage is 0.332.
As for G2A U69G, the self-cleavage is 0.219.
In the case of G2A C3U, the self-cleavage turned out to be 0.567.
With G2A C3A, the self-cleavage came to 0.0478.
